Data: article PMC4505066, “Insights into the Recruitment of Class IIa Histone Deacetylases (HDACs) to the SMRT/NCoR Transcriptional Repression Complex” (The Journal of Biological Chemistry, 2015)

B1: wild type GSI motif peptide (…), SMRT amino acids 1450-1469 with an amino-terminal cysteine [modified: BODIPY-TMR coupled to the N-terminal cysteine; BODIPY-TMR coupled to the N-terminal cysteine] [not stated] (parent)
chain 1: CPRPLKEGSITQGTPLKYDTG
chain 2: TKPRFTTGLVYDTLMLKHQCTCGSSSSHPEHAGRIQSIWSRLQETGLRGKCECIRGRKATLEELQTVHSEAHTLLYGTNPLNRQKLDSKKLLGSLASVFVRLPCGGVGVDSDTIWNEVHSAGAARLAVGCVVELVFKVATGELKNGFAVVRPPGHHAEESTPMGFCYFNSVAVAAKLLQQRLSVSKILIVDWDVHHGNGTQQAFYSDPSVLYMSLHRYDDGNFFPGSGAPDEVGTGPGVGFNVNMAFTGGLDPPMGDAEYLAAFRTVVMPIASEFAPDVVLVSSGFDAVEGHPTPLGGYNLSARCFGYLTKQLMGLAGGRIVLALEGGHDLTAICDASEACVSALLGNELDPLPEKVLQQRPNANAVRSMEKVMEIHSKYWRCLQRTTSTAGRSLIEAQTCENEEAETVT

Variants of: B1
Test: fluorescence anisotropy
Settings: with HDAC4 catalytic domain

Row | Kd [µM] | Variant
1 | > 1000 | chain 1 T14S
2 | > 1000 | chain 1 G13A
3 | > 1000 | chain 1 I10A
4 | > 1000 | chain 1 I10D
5 | > 1000 | chain 1 G8A
6 | > 1000 | chain 1 S9T
7 | > 1000 | chain 1 S9A
